Data taken from patent US6103872A, “CAPON: a protein associated with neuronal nitric oxide synthase” (The Johns Hopkins University, priority 1998, dated 2000).

B1: 125 amino acid C-terminal fragment of CAPON: Gal4 activation domain fusion of the last 125 amino acids of CAPON (protein)
chain: SGALPVLCESTTPKPEDLHSPLLGAGLADFAHPVGSPLGRRDCLVKLECFRFLPAEDNQPMAQGEPLLGGLELIKFRESGIASEYESNTDESEERDSWSQEELPRLLNVLQRQELGDSLDDEIAV
B2: GST-CAPON: GST fusion protein consisting of CAPON amino acids 379-503 (C-terminal 125 amino acids) (protein)
chain: B1 chain

Key:
nNOS [1] = experiment: Yeast two-hybrid interaction with nNOS (2-377); format: cell-based, rat
Source text: (§1) FIGS. 1A-1C. Cloning of the CAPON cDNA and distribution of CAPON mRNA. […] Yeast were transformed with the indicated Gal4 activation domain (AD) and Gal4 DNA-binding domain (BD) plasmids and grown on plates […] histidine. A typical filter lift is shown in which b-galactosidase activity was detected by the appearance of a blue precipitate. pAD-CAPON1, comprising the last 125 amino acids of CAPON, activates lacZ transcription in the presence of pBD-nNOS (2-377) but not with plasmids the first three PDZ domains of PSD95 (amino acids 20-364) or the second PDZ domain of PSD93 (amino acids 116-421).
We conducted a yeast two-hybrid screen employing the first 377 amino acids of nNOS, a region which includes the PDZ domain that comprises the first 100 amino acids of nNOS. […]
Two-hybrid screens and the construction of the parent vectors pPC86, containing the GAL4-activation domain, and pPC97, containing the GAL4-DNA binding domain, have been described (Jaffrey and Snyder, 1996). Plasmid pBD-NOS(2-377) was prepared by the insertion of an nNOS PCR product corresponding to amino acids 2-377 of rat nNOS into the Sal I and Bgl II sites of pPC97, resulting in an open reading frame encoding a GAL4 BD-NOS fusion protein (Jaffrey and Snyder, 1996). […]

PSD93 = experiment: Yeast two-hybrid interaction with PSD93 second PDZ domain (amino acids 116-421); format: cell-based
Source text: as §1
(§2) We conducted a yeast two-hybrid screen employing the first 377 amino acids of nNOS, a region which includes the PDZ domain that comprises the first 100 amino acids of nNOS. […] The CAPON two-hybrid clones share a common carboxyl terminus and are predicted to translate into 125 and 327 amino acid peptides followed by a stop codon. […] Moreover, nNOS fails to interact with another control protein, c-fos. To obtain a full-length CAPON cDNA, we screened a rat brain cDNA library with the larger two-hybrid clone and isolated a 2100 bp cDNA which overlapped with the two-hybrid clone and was used to assemble a final 2820 bp cDNA (see Methods). The conceptual translation of this cDNA produces a 503 amino acid protein (FIG. 1B SEQ ID NO:4). […]

PSD95 = experiment: Yeast two-hybrid interaction with PSD95 PDZ domains (amino acids 20-364); format: cell-based
Source text: as §1, §2

iNOS = experiment: GST-fusion protein binding assay with lysates of transfected HEK293 cells, iNOS; conditions: Western blot
Description: (§3) (FIG. 2A) CAPON binds to nNOS, but not eNOS or iNOS. Bacterially expressed GST, GST-PIN, and GST-CAPON were bound to glutathione agarose and then incubated with lysates of HEK293 cells transfected with expression plasmids for the indicated isoforms of NOS. After extensive washing of the resins, bound NOS was detected with isoform specific antibodies. […] Input=10% of starting material applied to each resin.
(§4) To assess the specificity of interactions between CAPON and nNOS, we evaluated the binding of a GST-CAPON fusion protein, consisting of C-terminal 125 amino acids of CAPON, with nNOS, eNOS and inducible NOS (iNOS) (FIG. 2A). Lysates of HEK-293 cells transfected with expression plasmids for each of the three forms of NOS were incubated with GST-CAPON. […] No interactions are evident with the GST control. […]
(§5) The material remaining on the resin was eluted with SDS-PAGE sample buffer and nNOS was detected by immunoblot using antibodies specific to each NOS isoform (Transduction Labs). […]

nNOS [2] = molecular target: nNOS (Rattus norvegicus, UniProt P29476); experiment: GST-fusion protein binding assay with lysates of transfected HEK293 cells, nNOS; set-up: expressed in transfected cells; host or cells: HEK293; conditions: Western blot
Description: as §3
(FIG. 4B) The C-terminal 13 amino acids of CAPON are sufficient for binding to nNOS. Various GST-CAPON fusion proteins were incubated with HEK293 lysates containing nNOS. A CAPON fusion protein comprising the last 100 amino acids binds nNOS, as do fusion proteins comprising the last 13 or 20 amino acids of CAPON.
as §4, §5

eNOS = experiment: GST-fusion protein binding assay with lysates of transfected HEK293 cells, eNOS; conditions: Western blot
Description: as §3, §4, §5

Chain of nNOS (Rattus norvegicus, UniProt P29476) (P29476 whole entry, the tested form may be a part): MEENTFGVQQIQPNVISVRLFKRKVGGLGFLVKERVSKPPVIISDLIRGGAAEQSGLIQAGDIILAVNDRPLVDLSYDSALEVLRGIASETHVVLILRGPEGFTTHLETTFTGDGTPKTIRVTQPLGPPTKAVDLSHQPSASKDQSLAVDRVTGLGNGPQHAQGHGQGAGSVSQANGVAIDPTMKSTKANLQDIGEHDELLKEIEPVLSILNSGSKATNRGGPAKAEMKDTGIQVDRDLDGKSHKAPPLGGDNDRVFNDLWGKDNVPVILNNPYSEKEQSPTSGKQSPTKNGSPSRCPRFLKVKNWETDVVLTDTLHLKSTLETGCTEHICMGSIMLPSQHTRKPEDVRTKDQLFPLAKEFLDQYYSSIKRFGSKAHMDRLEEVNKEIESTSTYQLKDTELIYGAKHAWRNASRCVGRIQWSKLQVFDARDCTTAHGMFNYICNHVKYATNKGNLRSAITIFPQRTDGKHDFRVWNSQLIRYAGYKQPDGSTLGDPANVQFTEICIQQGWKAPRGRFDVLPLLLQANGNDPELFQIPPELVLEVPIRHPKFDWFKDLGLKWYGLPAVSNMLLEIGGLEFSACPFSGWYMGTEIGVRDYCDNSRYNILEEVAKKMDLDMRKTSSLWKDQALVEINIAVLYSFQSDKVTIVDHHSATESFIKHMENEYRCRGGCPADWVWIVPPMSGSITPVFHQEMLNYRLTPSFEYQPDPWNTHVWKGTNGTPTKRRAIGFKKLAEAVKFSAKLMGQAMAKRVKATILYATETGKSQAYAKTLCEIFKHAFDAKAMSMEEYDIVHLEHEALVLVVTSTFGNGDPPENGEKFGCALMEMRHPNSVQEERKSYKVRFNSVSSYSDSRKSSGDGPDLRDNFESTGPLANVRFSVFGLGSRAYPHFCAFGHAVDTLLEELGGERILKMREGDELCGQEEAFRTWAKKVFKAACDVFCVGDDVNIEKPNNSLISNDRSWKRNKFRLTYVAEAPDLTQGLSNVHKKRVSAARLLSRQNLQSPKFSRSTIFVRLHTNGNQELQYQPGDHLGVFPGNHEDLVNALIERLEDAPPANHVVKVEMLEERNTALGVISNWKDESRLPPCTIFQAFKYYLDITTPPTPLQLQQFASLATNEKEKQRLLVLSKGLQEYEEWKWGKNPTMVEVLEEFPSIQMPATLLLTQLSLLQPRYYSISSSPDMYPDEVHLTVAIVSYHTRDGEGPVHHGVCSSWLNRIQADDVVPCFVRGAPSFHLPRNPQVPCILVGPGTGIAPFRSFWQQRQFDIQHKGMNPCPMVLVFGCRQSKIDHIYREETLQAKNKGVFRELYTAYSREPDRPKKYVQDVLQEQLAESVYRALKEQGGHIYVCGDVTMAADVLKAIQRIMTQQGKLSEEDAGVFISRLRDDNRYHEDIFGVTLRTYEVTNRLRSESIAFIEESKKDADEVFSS

| binding of nNOS to immobilized GST-fusion protein (nNOS [2]) | Molecule | interaction with nNOS in the two-hybrid system (nNOS [1]) | interaction with PSD93 fragment in the two-hybrid system (PSD93) | interaction with PSD95 fragment in the two-hybrid system (PSD95) | binding of iNOS to immobilized GST-fusion protein (iNOS) | binding of eNOS to immobilized GST-fusion protein (eNOS) |
| --- | --- | --- | --- | --- | --- | --- |
|  | B1 | specifically interacts | failure of CAPON to interact | failure of CAPON to interact |  |  |
| interacts strongly | B2 |  |  |  | do not interact | do not interact |
